According to patent publication US20100184652A1 (NEW YORK BLOOD CENTER, published 2010):
Where no end group is shown, it is not given here. [ ]: non-standard residue; d: D form. pY = N[C@@H](Cc1ccc(OP(=O)(O)O)cc1)C(=O)O

Key:
biotinylated GST = molecular target: T1, biotinylated GST (UniProt P08515 1-218 = GST, biotinylated (sites not given)); test: blot overlay with biotinylated GST
T1 construct: also called GST-B
Experimental: FIG. 2 is graphs and photographs of western blots showing the identification of the minimal binding region of c-Abl SH3 and SH2 domains in the N-terminus of Abi1. […] Recombinant GST fusion polypeptides containing the N-terminal terminal region of Abi1/Hsshb3p1 were separated on SDS polyacrylamide gels and transferred onto a nitrocellulose membrane. […] The top photograph was incubated with a biotinylated GST-Abl-SH3 domain (GST-Abl-SH3-B). No binding to biotinylated GST (GST-B) was observed (middle panel). […] Panels B-D show binding to the c-Abl SH2 domain. […] No binding to the GST protein alone was observed (not shown). RU, response unit.

GST protein alone = molecular target: T2, GST protein alone (UniProt P08515 1-218 = GST); test: SPR (Biacore 3000), peptide-coupled chip
T2 construct: Control analyte in SPR; also called glutathione S-transferase
Experimental: The top photograph was incubated with a biotinylated GST-Abl-SH3 domain (GST-Abl-SH3-B). No binding to biotinylated GST (GST-B) was observed (middle panel). […] Panels B-D show binding to the c-Abl SH2 domain. […] No binding to the GST protein alone was observed (not shown). RU, response unit.
Surface Plasmon Resonance Assay. Surface plasmon resonance assay was performed using a Biacore 3000 instrument (BlAcore Inc., Piscataway, N.J.). Biotinylated 14-residue peptides, pY213 or Y213, were coupled to surface of streptavidin-coated (SA) biosensor chip (BIAcore Inc., Piscataway, N.J.). Binding reactions were done in HBS-EP buffer, containing 10 mM HEPES, pH 7.4, 150 mM NaCl, 3 mM EDTA, and 0.05% (v/v) surfactant P20. The surface was regenerated before each new injection using 50 mM NaOH and 1M NaCl. The Biacore instrument was programmed to perform a series of binding assays with increasing concentrations of GST Abl SH2 polypeptide over the same regenerated surface. Sensograms (plots of changes in response unit on the surface as a function of time) derived were analyzed using the software BIAeval 3.0.

T1 sequence (P08515 whole entry): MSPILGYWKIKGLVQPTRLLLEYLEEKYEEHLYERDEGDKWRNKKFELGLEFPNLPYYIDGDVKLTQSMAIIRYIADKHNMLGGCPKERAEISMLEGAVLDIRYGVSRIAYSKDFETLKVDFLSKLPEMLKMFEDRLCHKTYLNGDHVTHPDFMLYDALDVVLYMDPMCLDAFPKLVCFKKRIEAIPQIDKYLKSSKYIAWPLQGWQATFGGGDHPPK
T2 sequence (P08515 whole entry): as above

binding result (biotinylated GST) | binding result (GST protein alone) | Binder
no binding |  | GST fusion polypeptide of Abi1 N1-172 (other, not shown: glutathione S-transferase (GST) from pGEX-2T) MAELQMLLEEEIPSGKRALIESYQNLTRVADYCENNYIQATDKRKALEETKAYTTQSLASVAYQINALANNVLQLLDIQASQLRRMESSINHISQTVDIHKEKVARREIGILTTNKNTSRTHKIIAPANMERPVRYIRKPIDYTVLDDVGHGVKWLKAKHGNNQPARTGTLS
no binding |  | GST fusion polypeptide of Abi1 N1-187 (other, not shown: glutathione S-transferase (GST) from pGEX-2T) MAELQMLLEEEIPSGKRALIESYQNLTRVADYCENNYIQATDKRKALEETKAYTTQSLASVAYQINALANNVLQLLDIQASQLRRMESSINHISQTVDIHKEKVARREIGILTTNKNTSRTHKIIAPANMERPVRYIRKPIDYTVLDDVGHGVKWLKAKHGNNQPARTGTLSRTNPPTQKPPSPPMS
 | no binding | VKPPTVPND[pY]MTSP (also: biotinylated (site not given here), Biotinylated and coupled to a streptavidin chip in SPR; also called phosphopeptide pY213) [pY213 peptide (14-residue Abi1 peptide containing phosphorylated tyrosine 213)]
